Consider six molecules from patent publication US20050208585A1 (published 2005).

For assay [1], the target named is T1, human c-mpl (thrombopoietin receptor) on HU-03 cells and human platelets (human, UniProt P40238 26-635).
T1 construct: whole, on cells; also called mpl receptor; TPO receptor
T1 sequence (looked up): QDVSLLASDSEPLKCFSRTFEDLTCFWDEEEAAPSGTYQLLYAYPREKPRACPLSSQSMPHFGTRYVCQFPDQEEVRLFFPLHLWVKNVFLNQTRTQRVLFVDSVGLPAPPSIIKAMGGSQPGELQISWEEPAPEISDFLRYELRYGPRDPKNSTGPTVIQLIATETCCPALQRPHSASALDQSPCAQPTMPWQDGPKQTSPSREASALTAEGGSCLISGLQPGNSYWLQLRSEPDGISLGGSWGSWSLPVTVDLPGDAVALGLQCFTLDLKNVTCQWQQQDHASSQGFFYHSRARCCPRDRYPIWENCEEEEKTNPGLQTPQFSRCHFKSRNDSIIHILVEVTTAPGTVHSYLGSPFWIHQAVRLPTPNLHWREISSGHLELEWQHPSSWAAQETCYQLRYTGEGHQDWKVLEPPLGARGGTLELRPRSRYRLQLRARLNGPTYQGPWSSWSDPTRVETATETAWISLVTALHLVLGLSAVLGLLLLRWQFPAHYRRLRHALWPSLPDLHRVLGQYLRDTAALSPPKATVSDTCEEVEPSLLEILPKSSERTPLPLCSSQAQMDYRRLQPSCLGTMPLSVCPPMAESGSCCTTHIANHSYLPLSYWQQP
Put plainly: competition with 100 pM 125I-TPO for binding to HU-03 cells.

Assay [2] addresses T1, human c-mpl (thrombopoietin receptor) …. As to the kind of experiment: cell-based or functional assay.
For assay [3] the target is unchanged. As to the kind of experiment: competition with 100 pM 125I-TPO for binding to human platelets.
Another assay addresses T2, mpl-Ig (UniProt P40238 26-491).
T2 construct: From conditioned media of mpl-Ig-transfected 293 cells, captured on rabbit anti-human IgG Fc; also called mpl-IgG; not shown: Ig part, captured by anti-human IgG Fc
T2 sequence (looked up): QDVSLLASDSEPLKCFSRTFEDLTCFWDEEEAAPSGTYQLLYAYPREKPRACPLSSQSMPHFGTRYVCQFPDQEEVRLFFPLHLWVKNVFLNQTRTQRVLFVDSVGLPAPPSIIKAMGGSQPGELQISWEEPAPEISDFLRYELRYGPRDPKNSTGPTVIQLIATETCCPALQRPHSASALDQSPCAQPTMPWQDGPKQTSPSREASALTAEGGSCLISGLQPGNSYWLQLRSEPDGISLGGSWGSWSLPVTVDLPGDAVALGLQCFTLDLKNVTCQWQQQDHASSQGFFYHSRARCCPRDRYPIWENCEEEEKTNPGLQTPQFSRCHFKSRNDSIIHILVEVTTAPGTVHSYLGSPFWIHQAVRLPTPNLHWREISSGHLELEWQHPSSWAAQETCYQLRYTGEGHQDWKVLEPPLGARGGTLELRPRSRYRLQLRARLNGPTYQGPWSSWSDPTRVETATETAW
Put plainly: TPO receptor-binding inhibition ELISA: biotinylated TPO on captured mpl-Ig.

Assay [4] deals with human c-mpl (thrombopoietin receptor) on HU-03 cells and human platelets (human) (UniProt P40238). Put plainly: competition with 100 pM 125I-TPO for binding to HU-03 cells.
Assay [5] shares this target. Put plainly: cell-based or functional assay.
In assay [6] the target is mpl-Rse.gD chimeric receptor (human, UniProt P40238 26-491). Put plainly: cell-based or functional assay.

B1: 12E10 scFv (scFv)
chain: MAQVQLQQSGPGLVKPSETLSLTCTVSGDSISSYYWSWIRQPPGKGLEWIGYIYYSGSTNYNPSLKSRVTISVDTSKSQFSLKLSSVTAADTAVYYCARGRYFDVWGRGTMVTVSSGGGGSGGGGSGGGGSSYVLTQPPSVSGSPGQSITISCTGTSSDVGGYNYVSWYQQHPGKAPKLMIYEGSKRPSGVSNRFSGSKSGNTASLTISGLQAEDEADYYCSSYTTRSTRVFGGGTKLTVLGAA
The term IC50 denotes the concentration at which inhibition is half-maximal. A lower IC50 goes with greater potency. As for B1, the IC50 in assay [1] amounted to 5 nM; in assay [3], 5 nM; in the assay with mpl-Ig it was 1.6 nM. For the same molecule, in assay [2], the “Hu3 Proliferation (ED50)” value was 0.005 nM.

B2: 12B5 Fab (Fab, from another filing)
scFv: MAQVQLVQSGGGLVRPGGSLSLSCAVSGITLRTYGMHWVRQAPGKGLEWVAGISFDGRSEYYADSVQGRFTISRDSSKNTLYLQMNSLRAEDTAVYYCARGAHYGFDIWGQGTMVTVSSGGGGTGGGGSGGGGSDIQMTQSPSTLSASIGDRVTITCRASEGIYHWLAWYQQKPGKAPKLLIYKASSLASGAPSRFSGSGSGTDFTLTISSLQPDDFATYYCQQYSNYPLTFGGGTELEIKRAA
Molecule B2 came in with an IC50 in assay [4] of 900 nM. In assay [5], the Hu3 Proliferation (ED50) is greater than 1000 nM. Further, the KIRA (ED50) in assay [6] stood at 3 nM.

B3: 12B5 scFv (scFv)
chain: B2 scFv
As to B3, the IC50 in assay [1] amounted to 10 nM; in assay [3], 100 nM; with mpl-Ig, 17 nM. Moreover, the “Hu3 Proliferation (ED50)” value in assay [2] was 0.02 nM. In addition, in assay [6], the “KIRA (ED50)” value came out at 1 nM.

B4: 12D5 Fab (Fab, V domains shown)
VH: QVQLVESGGGLVKPGGSLRLSCAASGFTFSSHNMNWVRQAPGKGLEWVSSISSSSSYIYYADSVKGRFTISRDNAKNSLYLQMNSLRAEDTAVYYCARDRGSTGMDVWGRGTLVTVSS
VL: DIVMTQSPSTLSASIGDRVTITCRASEGIYHWLAWYQQKPGKAPKLLIYKASSLASGAPSRFSGSGSGTDFTLTISSLQPDDFATYYCQQYSNYPLTFGGGTELEIKR
Turning to B4, the results for the half-maximal inhibitory concentration (IC50) (in assay [1]; with mpl-Ig) were 500 nM and 1000 nM, respectively. Further, the “KIRA (ED50)” value in assay [6] turned out to be 4 nM.

B5: 12D5 IgG (antibody, V domains shown)
VH: B4 VH
VL: B4 VL
B5: the IC50 in assay [1] amounted to 10 nM; in assay [3], 500 nM; in the assay with mpl-Ig, 0.45 nM. In addition, in assay [6], the “KIRA (ED50)” value was found to be 3 nM.

B6: 12B5 IgG (antibody, V domains shown)
VH: QVQLVQSGGGLVRPGGSLSLSCAVSGITLRTYGMHWVRQAPGKGLEWVAGISFDGRSEYYADSVQGRFTISRDSSKNTLYLQMNSLRAEDTAVYYCARGAHYGFDIWGQGTMVTVSS
VL: B4 VL
As to B6, the half-maximal inhibitory concentration (IC50) stood at 10 nM in assay [1], 300 nM in assay [3] and 0.152 nM with mpl-Ig. The “Hu3 Proliferation (ED50)” value in assay [2] stood at 0.03 nM.
